According to the supplement of paper PMC9170038:

Test system: MS2 coat protein
Assay: apparent KD of MS2 coat protein; designed switch direction (-1 OFF switch, 1 ON switch): -1; higher = weaker reporter binding
How it was run: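 The buffer was Tris-HCl pH 7.5 with KCl, MgCl2, BSA, DTT, tRNA and Tween-20. In it, SNAP-549-labelled MS2 coat protein was titrated in doubling steps from 0.7 or 1.5 nM to 3 µM over chip-bound RNA switches transcribed by stalled E. coli RNA polymerase on Illumina chips. Apparent KD is the per-design median over clusters of curve fits to normalised fluorescence.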

[1] = input ligand: microRNA oligo, concentration not stated
[2] = Eterna round: R95, input ligand: microRNA oligo, concentration not stated
[3] = Eterna round: R95, input ligand: FMN 200 uM
[4] = Eterna round: R95, input ligand: none

Sequence	apparent KD of MS2 coat protein (input ligand: FMN 200 uM)	apparent KD of MS2 coat protein [1]	apparent KD of MS2 coat protein (input ligand: none)	apparent KD of MS2 coat protein [2]	apparent KD of MS2 coat protein [3]	apparent KD of MS2 coat protein [4]
AAAUUCUGAGGAUAUCGAUGUUUGUACAUGAGGAUCACCCAUGUCCUUUUUAUUUUUUCUCGAGAAGGCAGUGUAU [JR_E5_Sub100] (Eterna round: R96, puzzle: Exclusion 5)	48.1 nM	32 nM	40.7 nM			
AAAUUCUGAGGAUAUCGAUGUUUGUACAUGAGGAUCACCCAUGUCCUUUUUAUUUUUUCUCGAGAAGGCAGUGUAU [JR_E5_Sub100] (puzzle: Exclusion 5)				34.2 nM		
AAAUUGGUAGAGGAUAUCGUACAGGAAACGAUGCGAGAAGGCUGCACAUGAGGAUCACCCAUGUUUAGUUGCGA [EX6 #42] (Eterna round: R97, puzzle: Exclusion 6)	19.2 nM		19.4 nM			
AACAAGCUUUAAAGAUCCCACAUGAGGAUCACCCAUGUGCUCGUCUUAUAACGUACUGUGACGAAAGUCACGGUACG [JL TOV1 3.25] (Eterna round: R97, puzzle: Sensor, turn-off variant 1)	27.7 nM		37.4 nM			
AACAGUAGAGGAUAUACAUGAGGAUCACCCAUGUGAUAUUUACGUGGCGUACCACGAAGUAGAAGGCUACUGGA [JL Maslow Revisted mod 14] (Eterna round: R96, puzzle: Exclusion 3)	512 nM	32.5 nM	34.9 nM			
AACAGUCUAGAGGAUAUGCUGGAUGAAUAUCUGGCAGAAGGCUGGACAUGAGGAUCACCCAUGUAAAUACUACC [Omei Ex6 A1c] (Eterna round: R97, puzzle: Exclusion 6)	96.9 nM		36.5 nM			
AACCAGCGAGGAUAUGCUUGAGCUUGUUCUGGUUAUAAUCGACUUGAGGAUCACCCAAGUAGAAGGUGCUGACG [EX2 #58] (Eterna round: R97, puzzle: Exclusion 2)	25.6 nM		26.9 nM			
AACCAGCUAGGAUAUGCUUGCGCGUGUUCUGGUUAUAAUCGACUUGAGGAUCACCCAAGUAGAAGGAGCUGGCG [EX2 #54] (Eterna round: R97, puzzle: Exclusion 2)	1360 nM		445 nM			
AACCUCGUAGCAGGAUAUUAGAGCUCCCGCAAAUGAGAAGGGCUACGAAACACUUGAGGAUCACCCAAGUACCGUGGUCCUCUA [Mutated MS2 EX1.8] (Eterna round: R96, puzzle: Exclusion NG 1)	12.7 nM	17.6 nM	20.7 nM			
AACGCGUGAGGAUAUUGAGGUCUAAAAUGGUAACAUGACCACGAGAAGGCACAUGAGGAUCACCCAUGUUCCCG [Eternabot (L2) Solution 49] (Eterna round: R97, puzzle: Exclusion 4)	85.1 nM		17.8 nM			
AACGUGUAAGGAUAUCUGCUUAUGCUCAGCGAUACGCUGAUAGAGAAGGUACAUGAGGAUCACCCAUGUUCCAA [EX4 A.17] (Eterna round: R97, puzzle: Exclusion 4)	20.4 nM		17.5 nM			
AACUAGUCAGGAUAUACGAACAUGUCAAAAAACAUGAAGGGACAUGAGGAUCACCCAUGUAGAAGGGACUAGCA [74%, Web mod - With 3 less G's] (Eterna round: R96, puzzle: Exclusion 2)		29.3 nM				
AACUCUGAGAAGGAUAUUCAAUGGGAAACGAUAGAAGAAGGUUUCACAUGAGGAUCACCCAUGUCAAAUAGUGA [EX6 #72] (Eterna round: R97, puzzle: Exclusion 6)	178 nM		173 nM			
AACUCUGAGGAGGAUAUACAGUGCGAAAGGACAGUAGAAGGCUUCACAUGAGGAUCACCCAUGUCGAAUAGUGA [EX6 #78] (Eterna round: R97, puzzle: Exclusion 6)	68 nM		51.9 nM			
AACUGGACAGGAUAUGUACUUGAGCACUUGAGGAUCACCCAAGUCAUCAAGUACUCAGGCACAGAAGGGUUUAUGA [jl-ex5.4.61 ViennaUCT mod] (Eterna round: R97, puzzle: Exclusion 5)	142 nM		132 nM			
AACUGGACAGGAUAUGUACUUGAGCACUUGAGGAUCACCCAAGUCAUCAAGUACUCAGGCACAGAAGGGUUUAUUU [jl-ex5.4.69 ViennaUCT mod] (Eterna round: R97, puzzle: Exclusion 5)	311 nM		200 nM			
AACUGGCGAGGAUAUACUUGGCAUAUAGCCUAAUUUCGGCUACUUGAGGAUCACCCAAGUAGAAGGUGCACGGC [Anlaxebe] (Eterna round: R97, puzzle: Exclusion 2)	16.5 nM		15.1 nM			

Sequence	apparent KD of MS2 coat protein (input ligand: FMN 200 uM)	apparent KD of MS2 coat protein [1]	apparent KD of MS2 coat protein (input ligand: none)	apparent KD of MS2 coat protein [2]	apparent KD of MS2 coat protein [3]	apparent KD of MS2 coat protein [4]
AACUGUGAGGCAGGAUAUGAAGCAUGGGCCGCGUGAUAAUACAUGAGGAUCACCCAUGUAGGGAUUCAGAAGGGCCCAGAGCAC [Atusveer] (Eterna round: R96, puzzle: Exclusion NG 2)	20.4 nM	11.5 nM	18.2 nM			
AAGAAACAUGAGGAUCACCCAUGUGAGGAUAUGAAAAAGAAAAGAAAAGAAAGAAGAAUCAGAAGGCACAAAGU [salish99-ex1_r3_089] (puzzle: Exclusion 1)				25.9 nM	26.5 nM	32.6 nM
AAGAAACAUGAGGAUCACCCAUGUGAGGAUAUGAAAAAGAAAAGAAAAGAAAGAAGGGUCAGAAGGCACAAAGG [salish99-ex1_r3_028] (puzzle: Exclusion 1)				25.3 nM	24 nM	35.5 nM
AAGAAACAUGAGGAUCACCCAUGUGAGGAUAUGAGCAAGAAAAGAAAAGAAAGAAGACUCAGAAGGCACAAAGG [salish99-ex1_r3_072] (puzzle: Exclusion 1)				110 nM	90.2 nM	106 nM
AAGAAACAUGAGGAUCACCCAUGUGAGGAUAUGAGCACGACCGUGAGGUCGAUAAGAAUCAGAAGGCACAUUAA [JL-ex1-4.55] (Eterna round: R97, puzzle: Exclusion 1)	137 nM		41.8 nM			
AAGAAACAUGAGGAUCACCCAUGUGAGGAUAUGAUUAAGAAAAGAAAAGAAAGAAGAAUCAGAAGGCACAAAGG [salish99-ex1_r3_042] (puzzle: Exclusion 1)				98.7 nM	258 nM	108 nM
AAGAAACGAGGAUAUACAAUUAAGAGAGAGAAGGAAAUGAGACAUGAGGAUCACCCAUGUAGAAGGCGUAAGAG [JR_Exclu2_Sub083] (puzzle: Exclusion 2)				31.5 nM	28 nM	28.2 nM
AAGAAACGAGGAUAUACAGUUGAGUGAGAGAGGGUAGUGUUACAUGAGGAUCACCCAUGUAGAAGGCGUGAGAG [JR_Exclu2_Sub089] (puzzle: Exclusion 2)				31.5 nM	52.7 nM	32.7 nM
AAGAAACGAGGAUAUACAGUUGAGUGAGGGAGGGUAGUGUUACAUGAGGAUCACCCAUGUAGAAGGCGUGAGAG [JR_Exclu2_Sub090] (puzzle: Exclusion 2)				19.3 nM	24.8 nM	25 nM
AAGAACCCGGUAGGAUAUAUUGUGGGCAAACAUGGAACAACAUGAGGAUCACCCAUGUAAUUUAGGUAGAAGGGCCAAAAGAGA [Default title] (Eterna round: R96, puzzle: Exclusion NG 2)	80.1 nM	51.6 nM	71.4 nM			
AAGAACGUCGGAGGAUAUCCAGCCAAGCCCGCAGGAGAAGGCCGGCGGUGGGAUGUGCUUCACAUGAGGAUCACCCAUGUUAAU [Onriti] (Eterna round: R96, puzzle: Exclusion NG 1)	361 nM	64.6 nM	96.2 nM			
AAGAAGAAGUAAGGAUAUGAAGAUCUGGUGGUGACAUGAGGAUCACCCAUGUGAAAACGAUGAGAUCAGAAGGUAUAAGAAGAA [AK ExNG2-3.3] (Eterna round: R96, puzzle: Exclusion NG 2)	116 nM	59.9 nM	89.4 nM			
AAGAAGAUCAAAGGAUAUGGAGCUGAAACGGAGCUAGAAGGUUGUCUAGUUUAACAUGAGGAUCACCCAUGUAGGUACCUCUAA [AK ExNG1-V2-1] (Eterna round: R96, puzzle: Exclusion NG 1)	850 nM	719 nM	713 nM			
AAGAGGUCAGGAUAUUGGGCGGAAAGGGAAAGGAAAGGGCCCAAGAAGGGACAUGAGGAUCACCCAUGUAAGAA [Excls4-I] (puzzle: Exclusion 4)				33 nM	38.5 nM	35.4 nM
AAGAUGCGCGCAGGAUAUGGAGAGAAAGAAAGACCAGAAGGGCGGGUCACACAACAUGAGGAUCACCCAUGUGUGUGUUGCGAA [snuffleupagus] (Eterna round: R96, puzzle: Exclusion NG 1)	9.29 nM	9.54 nM	12.2 nM			
AAGGGUGCUUUCAGAACGACAUGAGGAUCACCCAUGUAGACUGAGGAUAUCUACUUCUAAGGACGGGAGAAGGCAGUGUAAUGC [Ex NG3 #68] (Eterna round: R96, puzzle: Exclusion NG 3)	23.1 nM	19.5 nM	21.6 nM			
AAGGGUGCUUUUAGAACGACAUGAGGAUCACCCAUGUAGACUGAGGAUAUCUACUCCUAAGGACCGGAGAAGGCAGUGUAAUGC [Ex NG3 #64] (Eterna round: R96, puzzle: Exclusion NG 3)	57.8 nM	75 nM	55.9 nM			
